Several values for one entry are separate records, joined by “and”; a condition that tells them apart may be missing. Equal values may be shown once. Where no end group is shown, it is not given here. [ ]: non-standard residue; d: D form. pS = N[C@@H](COP(=O)(O)O)C(=O)O

The text below walks through data of publication PMC5607241, “Chimeric 14-3-3 proteins for unraveling interactions with intrinsically disordered partners” (Scientific Reports, 2017).

Series [1] deals with the molecule itself. Briefly: crystal structure; pCH2 (mono-directional peptide swap), 0.1 M bis-Tris pH 6.5, 2 M (NH4)2SO4, 20 °C, 3.2 Å, PDB 5OM0.
Series [2] concerns the molecule itself. Description: crystal structure; pCH3 (bi-directional peptide swap), 0.1 M bis-Tris-propane pH 6.5, 0.2 M (NH4)2SO4, 25% PEG 3350, 20 °C, 3.9 Å, PDB 5OMA.
For series [3], the target named is T1, 14-3-3σ∆C mutant Clu3 (core of the chimeras) (human, UniProt P31947 1-231, 75EEK77 → 75AAA77).
T1 construct: three extra residues left at the N terminus after 3C cleavage of the hexahistidine tag; 14-3-3σ, human, C-terminally truncated (14-3-3σ∆C, residues 1-231), surface-entropy reduction mutant Clu3; Stood in the structures joined on one chain with the peptides (m1-m3); written as a molecule of its own for the pairs core/peptide; also called 14-3-3σ Clu3; 14-3-3σ∆C-Clu3; source: E. coli, as the …
T1 sequence: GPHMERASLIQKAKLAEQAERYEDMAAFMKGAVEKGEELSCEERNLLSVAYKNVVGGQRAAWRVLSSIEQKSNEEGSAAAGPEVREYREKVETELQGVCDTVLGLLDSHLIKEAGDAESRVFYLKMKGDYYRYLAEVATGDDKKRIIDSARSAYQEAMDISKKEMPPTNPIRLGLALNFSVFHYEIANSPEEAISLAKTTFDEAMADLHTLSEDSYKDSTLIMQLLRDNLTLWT
Briefly: crystal structure; pCH2 (mono-directional peptide swap), 0.1 M bis-Tris pH 6.5, 2 M (NH4)2SO4, 20 °C, 3.2 Å, PDB 5OM0. The note with it: both partners purified.

Series [4] addresses T1, 14-3-3σ∆C mutant Clu3 (core of the …). Description: crystal structure; pCH3 (bi-directional peptide swap), 0.1 M bis-Tris-propane pH 6.5, 0.2 M (NH4)2SO4, 25% PEG 3350, 20 °C, 3.9 Å, PDB 5OMA. The note with it: both partners purified.
Series [5] deals with the molecule itself. Description: SEC; analytical SEC, calibrated Superdex 200 Increase 10/300, 20 mM Tris-HCl pH 7.6, 150 mM NaCl, 0.1 mM EDTA, 3 mM β-mercaptoethanol, 1.2 mL/min; samples pre-incubated 30 min at room temperature; hydrodynamic radii from column calibration.

B1: 14-3-3σ Clu3 – Gli1 phosphopeptide chimera, phosphorylated (pCH2) (other)
chain: GPHMERASLIQKAKLAEQAERYEDMAAFMKGAVEKGEELSCEERNLLSVAYKNVVGGQRAAWRVLSSIEQKSNEEGSAAAGPEVREYREKVETELQGVCDTVLGLLDSHLIKEAGDAESRVFYLKMKGDYYRYLAEVATGDDKKRIIDSARSAYQEAMDISKKEMPPTNPIRLGLALNFSVFHYEIANSPEEAISLAKTTFDEAMADLHTLSEDSYKDSTLIMQLLRDNLTLWTGSGSLRRASDPAQA
modifications: phosphoserine at Ser640 of the Gli peptide
notes: three extra residues left at the N terminus after 3C cleavage of the hexahistidine tag; 14-3-3σ, human, C-terminally truncated (14-3-3σ∆C, residues 1-231), surface-entropy reduction mutant Clu3; Gli peptide RRAS640DPAQA, said to be conserved in Gli1, Gli2 and Gli3; the other grooves hold sulfate; also called 14-3-3σ fusion with Gli phosphopeptide; source: E. coli, co-expressed with His-tagged …
Consider B1, for which, in series [1], the binding result is reported as “binds”.

B2: 14-3-3σ Clu3 – StARD1 phosphopeptide chimera, phosphorylated (pCH3) (other)
chain: GPHMERASLIQKAKLAEQAERYEDMAAFMKGAVEKGEELSCEERNLLSVAYKNVVGGQRAAWRVLSSIEQKSNEEGSAAAGPEVREYREKVETELQGVCDTVLGLLDSHLIKEAGDAESRVFYLKMKGDYYRYLAEVATGDDKKRIIDSARSAYQEAMDISKKEMPPTNPIRLGLALNFSVFHYEIANSPEEAISLAKTTFDEAMADLHTLSEDSYKDSTLIMQLLRDNLTLWTGSGSLRRSSLLGSR
modifications: phosphoserine at the second Ser of the GSGS linker (-GSGpS-); phosphorylation status of the target and neighbouring serines (RRSSLLGSR) not known
notes: three extra residues left at the N terminus after 3C cleavage of the hexahistidine tag; 14-3-3σ, human, C-terminally truncated (14-3-3σ∆C, residues 1-231), surface-entropy reduction mutant Clu3; StARD1 peptide around Ser57 (RRSS57LLGS); also called 14-3-3σ fusion with StARD1/BimEL phosphopeptide; source: E. coli, co-expressed with His-tagged catalytic subunit of mouse PKA, purified (subtractive …)
For B2, the binding result in series [2] is on record as “binds”.

B3: Gli phosphopeptide (RRApS640DPAQA), as fused in pCH2 (peptide)
peptide: RRA[pS]DPAQA
notes: Gli peptide RRAS640DPAQA, said to be conserved in Gli1, Gli2 and Gli3; Tethered through GSGSL to Thr231 of 14-3-3σ Clu3; also called Gli1 phosphopeptide; Gli-derived phosphopeptide; source: E. coli, as the C-terminal part of chimera pCH2, phosphorylated by co-expressed PKA
Consider B3, for which the binding result in series [3] is “binds”.

B4: phosphorylated linker GSGpSLRR of pCH3 (peptide)
peptide: GSG[pS]LRR
notes: GSGS linker, the Leu kept from CH1 and the first two Arg of the StARD1 peptide; the stretch that was traced in the groove; also called cross-patching peptide of pCH3; source: E. coli, as part of the C-terminal tail of chimera pCH3, phosphorylated by co-expressed PKA
In the case of B4, the binding result in series [4] was “binds”.

B5: 14-3-3σ Clu3 – HSPB6 phosphopeptide chimera, phosphorylated (pCH1) (other)
chain: GPHMERASLIQKAKLAEQAERYEDMAAFMKGAVEKGEELSCEERNLLSVAYKNVVGGQRAAWRVLSSIEQKSNEEGSAAAGPEVREYREKVETELQGVCDTVLGLLDSHLIKEAGDAESRVFYLKMKGDYYRYLAEVATGDDKKRIIDSARSAYQEAMDISKKEMPPTNPIRLGLALNFSVFHYEIANSPEEAISLAKTTFDEAMADLHTLSEDSYKDSTLIMQLLRDNLTLWTGSGSLRRASAPL
modifications: phosphoserine at Ser16 of the HSPB6 peptide (RRApS16APL)
notes: three extra residues left at the N terminus after 3C cleavage of the hexahistidine tag; 14-3-3σ, human, C-terminally truncated (14-3-3σ∆C, residues 1-231), surface-entropy reduction mutant Clu3; flexible linker; HSPB6 peptide RRAS16APL with the natural Leu that precedes it (the Leu is told in words; Dimer through the 14-3-3σ core; also called CH1 co-expressed with PKA; 14-3-3/HSPB6 chimera CH1; …)
As a reminder, the stoichiometry N is the number of molecules, sites or subunits per partner or assembly. With B5, the “stoichiometry N” value in series [5] is 2 and 4.
